According to the supplement of paper PMC10567573:

B1: FBXO39 (parent)
chain: RVFKARIYTNRYETNEEDKTLQEI
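Further: lentivirally expressed fusions sorted by FACS into six bins by GFP to DsRed ratio, PSI derived from sequencing read proportions per bin multiplied by bin number.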

Variants of: B1
Test: protein stability index of a GFP-peptide fusion (GPS, HEK-293T) (PSI 1-6); higher = more stable
Settings: c terminus: a fixed tail appended
RVFKARIYTNRYETNEEDKTHQEI showed a protein stability index of 3.76.
With RVFKARIYTNRYETNEEDKTGQEI the protein stability index was 3.2.
For RVFKARIYTNRYETNEEDKTQQEI, the protein stability index was 3.18.
In the case of RVFKARIYTNRYETNEEDKTVQEI, the protein stability index is reported as 2.86.
RVFKARIYTNRYETNEEDKTRQEI showed a protein stability index of 2.97.
Work on RVFKARIYTNRYETNEEDKTYQEI yielded a protein stability index of 1.99.
For RVFKARIYTNRYETNEEDKTSQEI, the protein stability index was 2.93.
RVFKARIYTNRYETNEEDKLLQEI gave a protein stability index of 2.38.
With RVFKARIYTNRYETNEEDKKLQEI the protein stability index was 2.53.
RVFKARIYTNRYETNEEDKSLQEI showed a protein stability index of 3.2.
Work on RVFKARIYTNRYETNEEDKRLQEI yielded a protein stability index of 2.77.
Work on RVFKARIYTNRYETNEEDKNLQEI yielded a protein stability index of 2.57.
Work on RVFKARIYTNRYETNEEDKWLQEI yielded a protein stability index of 2.49.
RVFKARIYTNRYETNEEDKFLQEI gave a protein stability index of 2.74.
Work on RVFKARIYTNRYETNEEDKDLQEI yielded a protein stability index of 3.48.
In the case of RVFKARIYTNRYETNEEDKYLQEI, the protein stability index is reported as 2.17.
RVFKARIYTNRYETNEEDKILQEI gave a protein stability index of 1.76.
Variant RVFKARIYTNRYETNEEDKELQEI has a protein stability index of 2.53.
Variant RVFKARIYTNRYETNEEDKCLQEI has a protein stability index of 2.55.
RVFKARIYTNRYETNEEDKALQEI showed a protein stability index of 2.87.
Work on RVFKARIYTNRYETNEEDKVLQEI yielded a protein stability index of 3.47.
For RVFKARIYTNRYETNEEDKQLQEI, the protein stability index was 2.78.
Work on RVFKARIYTNRYETNEEDKMLQEI yielded a protein stability index of 3.06.
In the case of RVFKARIYTNRYETNEEDKPLQEI, the protein stability index is reported as 2.73.
RVFKARIYTNRYETNEEDKGLQEI showed a protein stability index of 1.79.
With RVFKARIYTNRYETNEEDSTLQEI the protein stability index was 3.39.
With RVFKARIYTNRYETNEEDYTLQEI the protein stability index was 2.57.
Work on RVFKARIYTNRYETNEEDLTLQEI yielded a protein stability index of 2.44.
RVFKARIYTNRYETNEEDNTLQEI gave a protein stability index of 2.83.
For RVFKARIYTNRYETNEEDHTLQEI, the protein stability index was 2.92.
Work on RVFKARIYTNRYETNEEDRTLQEI yielded a protein stability index of 4.
RVFKARIYTNRYETNEEDGTLQEI gave a protein stability index of 3.62.
Work on RVFKARIYTNRYETNEEDVTLQEI yielded a protein stability index of 2.62.
With RVFKARIYTNRYETNEEDETLQEI the protein stability index was 3.84.
RVFKARIYTNRYETNEEDATLQEI gave a protein stability index of 2.15.
In the case of RVFKARIYTNRYETNEEDTTLQEI, the protein stability index is reported as 2.79.
For RVFKARIYTNRYETNEEDQTLQEI, the protein stability index was 3.23.
For RVFKARIYTNRYETNEEDPTLQEI, the protein stability index was 2.91.
Variant RVFKARIYTNRYETNEEDITLQEI has a protein stability index of 2.58.
With RVFKARIYTNRYETNEEDWTLQEI the protein stability index was 2.54.
For RVFKARIYTNRYETNEEDFTLQEI, the protein stability index was 2.61.
For RVFKARIYTNRYETNEEDMTLQEI, the protein stability index was 2.3.
For RVFKARIYTNRYETNEEDCTLQEI, the protein stability index was 3.04.
Variant RVFKARIYTNRYETNEMDKTLQEI has a protein stability index of 1.89.
With RVFKARIYTNRYETNEKDKTLQEI the protein stability index was 2.24.
For RVFKARIYTNRYETNEQDKTLQEI, the protein stability index was 2.33.
Variant RVFKARIYTNRYETNETDKTLQEI has a protein stability index of 2.83.
Work on RVFKARIYTNRYETNEGDKTLQEI yielded a protein stability index of 1.4.
Work on RVFKARIYTNRYETNEDDKTLQEI yielded a protein stability index of 3.12.
Work on RVFKARIYTNRYETNEIDKTLQEI yielded a protein stability index of 1.59.
In the case of RVFKARIYTNRYETNEHDKTLQEI, the protein stability index is reported as 2.02.
With RVFKARIYTNRYETNECDKTLQEI the protein stability index was 2.03.
RVFKARIYTNRYETNESDKTLQEI showed a protein stability index of 2.1.
Work on RVFKARIYTNRYETNEFDKTLQEI yielded a protein stability index of 1.63.
RVFKARIYTNRYETNEYDKTLQEI showed a protein stability index of 2.72.
Variant RVFKARIYTNRYETNENDKTLQEI has a protein stability index of 1.98.
For RVFKARIYTNRYETNEPDKTLQEI, the protein stability index was 2.41.
Work on RVFKARIYTNRYETNEWDKTLQEI yielded a protein stability index of 2.27.
With RVFKARIYTNRYETNELDKTLQEI the protein stability index was 2.41.
Work on RVFKARIYTNRYETNERDKTLQEI yielded a protein stability index of 2.43.
Work on RVFKARIYTNRYETNEEDKTLQPI yielded a protein stability index of 2.39.
In the case of RVFKARIYTNRYETNEEDKTLQCI, the protein stability index is reported as 2.13.
For RVFKARIYTNRYETNEEDKTLQNI, the protein stability index was 2.15.
RVFKARIYTNRYETNEEDKTLQRI gave a protein stability index of 2.05.
RVFKARIYTNRYETNEEDKTLQYI showed a protein stability index of 2.14.
For RVFKARIYTNRYETNEEDKTLQDI, the protein stability index was 2.58.
RVFKARIYTNRYETNEEDKTLQKI gave a protein stability index of 2.74.
RVFKARIYTNRYETNEEDKTLQGI gave a protein stability index of 2.19.
For RVFKARIYTNRYETNEEDKTLQFI, the protein stability index was 1.93.
In the case of RVFKARIYTNRYETNEEDKTLQLI, the protein stability index is reported as 2.42.
Work on RVFKARIYTNRYETNEEDKTLQII yielded a protein stability index of 1.88.
RVFKARIYTNRYETNEEDKTLQVI gave a protein stability index of 2.41.
Work on RVFKARIYTNRYETNEEDKTLQSI yielded a protein stability index of 2.32.
Work on RVFKARIYTNRYETNEEDKTLQWI yielded a protein stability index of 1.74.
For RVFKARIYTNRYETNEEDKTLQHI, the protein stability index was 2.74.
RVFKARIYTNRYETNEEDKTLQTI gave a protein stability index of 2.44.
RVFKARIYTNRYETNEEDKTLQMI gave a protein stability index of 2.14.
With RVFKARIYTNRYETNEEDKTLQQI the protein stability index was 2.21.
With RVFKARIYTNRYETNEEDKTLQEY the protein stability index was 3.17.
For RVFKARIYTNRYETNEEDKTLQEC, the protein stability index was 2.61.
RVFKARIYTNRYETNEEDKTLQEP gave a protein stability index of 3.21.
Variant RVFKARIYTNRYETNEEDKTLQEN has a protein stability index of 2.64.
RVFKARIYTNRYETNEEDKTLQER gave a protein stability index of 3.22.
Variant RVFKARIYTNRYETNEEDKTLQEE has a protein stability index of 3.48.
RVFKARIYTNRYETNEEDKTLQED showed a protein stability index of 3.26.
Work on RVFKARIYTNRYETNEEDKTLQEF yielded a protein stability index of 2.55.
Variant RVFKARIYTNRYETNEEDKTLQEH has a protein stability index of 3.7.
RVFKARIYTNRYETNEEDKTLQEM gave a protein stability index of 2.25.
RVFKARIYTNRYETNEEDKTLQEQ showed a protein stability index of 3.32.
Variant RVFKARIYTNRYETNEEDKTLQEW has a protein stability index of 2.34.
In the case of RVFKARIYTNRYETNEEDKTLQET, the protein stability index is reported as 2.75.
For RVFKARIYTNRYETNEEDKTLQES, the protein stability index was 3.36.
Work on RVFKARIYTNRYETNEEDKTLQEK yielded a protein stability index of 2.98.
With RVFKARIYTNRYETNEEDKTLQEV the protein stability index was 3.44.
